# Data published in the supplement of paper PMC10065799, “High-throughput profiling of sequence recognition by tyrosine kinases and SH2 domains using bacterial peptide display” (eLife, 2023).
# What was measured:
# Fyn = Fyn (UniProt P06241); assay: phosphorylation enrichment, bacterial display (enrichment ratio); higher = better substrate or ligand; peptides without Tyr show the background
# c-Src = assay: as above
# MERTK = MERTK (UniProt Q12866); assay: as above
# EPHB1 = EPHB1 (UniProt P54762); assay: as above
# Chain of EPHB1 (P54762 whole entry, looked up): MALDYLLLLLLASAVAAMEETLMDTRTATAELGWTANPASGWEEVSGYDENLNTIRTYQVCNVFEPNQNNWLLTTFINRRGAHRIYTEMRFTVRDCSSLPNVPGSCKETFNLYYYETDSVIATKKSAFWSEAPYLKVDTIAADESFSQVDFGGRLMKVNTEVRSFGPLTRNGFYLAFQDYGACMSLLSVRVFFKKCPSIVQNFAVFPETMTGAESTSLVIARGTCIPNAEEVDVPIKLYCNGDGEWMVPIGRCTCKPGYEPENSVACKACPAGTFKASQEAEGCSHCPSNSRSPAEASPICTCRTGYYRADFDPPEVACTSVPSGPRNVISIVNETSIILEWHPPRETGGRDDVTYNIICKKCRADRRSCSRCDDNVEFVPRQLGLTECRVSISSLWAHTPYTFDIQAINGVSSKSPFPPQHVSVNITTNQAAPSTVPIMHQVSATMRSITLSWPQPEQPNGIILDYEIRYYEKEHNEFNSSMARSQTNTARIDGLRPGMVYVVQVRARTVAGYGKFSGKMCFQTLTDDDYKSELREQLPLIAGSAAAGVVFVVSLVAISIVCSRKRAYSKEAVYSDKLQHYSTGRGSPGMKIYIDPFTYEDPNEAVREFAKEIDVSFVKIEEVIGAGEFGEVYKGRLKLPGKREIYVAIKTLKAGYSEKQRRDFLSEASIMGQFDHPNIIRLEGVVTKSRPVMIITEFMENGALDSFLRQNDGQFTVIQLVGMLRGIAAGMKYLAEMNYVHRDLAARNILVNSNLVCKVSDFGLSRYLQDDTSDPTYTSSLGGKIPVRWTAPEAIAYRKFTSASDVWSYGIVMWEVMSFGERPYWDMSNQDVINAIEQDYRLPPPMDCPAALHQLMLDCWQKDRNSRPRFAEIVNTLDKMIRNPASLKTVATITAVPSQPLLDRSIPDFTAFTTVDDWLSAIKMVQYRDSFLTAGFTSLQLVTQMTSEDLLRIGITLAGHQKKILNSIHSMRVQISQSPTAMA
# Fer (mouse) = assay: as above
# Hck = Hck (UniProt P08631); assay: as above
# Chain of Hck (P08631 whole entry, looked up): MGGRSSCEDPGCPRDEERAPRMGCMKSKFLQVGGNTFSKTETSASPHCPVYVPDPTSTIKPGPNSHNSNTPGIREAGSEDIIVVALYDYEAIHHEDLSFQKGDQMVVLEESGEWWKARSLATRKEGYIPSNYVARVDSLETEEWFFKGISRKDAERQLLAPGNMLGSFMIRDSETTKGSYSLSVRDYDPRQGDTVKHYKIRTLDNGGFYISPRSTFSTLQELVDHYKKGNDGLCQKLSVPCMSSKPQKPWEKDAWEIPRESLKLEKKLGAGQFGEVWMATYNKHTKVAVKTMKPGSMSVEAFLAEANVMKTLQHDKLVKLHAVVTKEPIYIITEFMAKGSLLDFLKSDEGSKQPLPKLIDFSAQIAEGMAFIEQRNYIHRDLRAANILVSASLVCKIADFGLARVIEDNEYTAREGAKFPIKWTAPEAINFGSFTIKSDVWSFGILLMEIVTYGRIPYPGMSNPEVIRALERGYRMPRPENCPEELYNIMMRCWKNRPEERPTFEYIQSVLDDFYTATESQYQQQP
# Fes = Fes (UniProt P07332); assay: as above
# Chain of Fes (P07332 whole entry, looked up): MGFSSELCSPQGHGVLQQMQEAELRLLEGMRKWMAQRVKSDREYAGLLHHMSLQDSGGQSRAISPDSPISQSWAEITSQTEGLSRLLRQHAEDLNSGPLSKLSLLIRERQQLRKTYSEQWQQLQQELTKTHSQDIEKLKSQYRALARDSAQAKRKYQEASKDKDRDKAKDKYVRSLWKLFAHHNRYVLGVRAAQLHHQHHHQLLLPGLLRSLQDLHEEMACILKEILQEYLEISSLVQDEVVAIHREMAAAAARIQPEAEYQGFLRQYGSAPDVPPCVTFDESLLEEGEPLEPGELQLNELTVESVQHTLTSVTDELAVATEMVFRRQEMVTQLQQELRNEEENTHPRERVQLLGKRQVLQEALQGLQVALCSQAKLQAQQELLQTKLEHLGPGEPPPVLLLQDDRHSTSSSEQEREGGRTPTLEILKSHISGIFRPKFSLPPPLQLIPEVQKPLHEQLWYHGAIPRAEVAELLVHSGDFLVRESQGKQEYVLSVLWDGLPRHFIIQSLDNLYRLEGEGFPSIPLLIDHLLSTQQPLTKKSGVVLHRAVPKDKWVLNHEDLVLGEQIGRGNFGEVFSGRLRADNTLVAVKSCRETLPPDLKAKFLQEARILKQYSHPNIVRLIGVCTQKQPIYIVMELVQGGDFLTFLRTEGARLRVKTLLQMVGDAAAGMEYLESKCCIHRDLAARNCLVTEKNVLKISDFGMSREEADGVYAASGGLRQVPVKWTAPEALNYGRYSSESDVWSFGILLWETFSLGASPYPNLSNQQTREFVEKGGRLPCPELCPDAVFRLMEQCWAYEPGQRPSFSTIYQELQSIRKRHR
# FGFR1 = FGFR1 (UniProt P11362); assay: as above
# Jak2 = Jak2 (UniProt O60674); assay: as above
# c-Abl (mouse) = assay: as above
# FGFR3 = FGFR3 (UniProt P22607); assay: as above
# Chain of FGFR3 (P22607 whole entry, looked up): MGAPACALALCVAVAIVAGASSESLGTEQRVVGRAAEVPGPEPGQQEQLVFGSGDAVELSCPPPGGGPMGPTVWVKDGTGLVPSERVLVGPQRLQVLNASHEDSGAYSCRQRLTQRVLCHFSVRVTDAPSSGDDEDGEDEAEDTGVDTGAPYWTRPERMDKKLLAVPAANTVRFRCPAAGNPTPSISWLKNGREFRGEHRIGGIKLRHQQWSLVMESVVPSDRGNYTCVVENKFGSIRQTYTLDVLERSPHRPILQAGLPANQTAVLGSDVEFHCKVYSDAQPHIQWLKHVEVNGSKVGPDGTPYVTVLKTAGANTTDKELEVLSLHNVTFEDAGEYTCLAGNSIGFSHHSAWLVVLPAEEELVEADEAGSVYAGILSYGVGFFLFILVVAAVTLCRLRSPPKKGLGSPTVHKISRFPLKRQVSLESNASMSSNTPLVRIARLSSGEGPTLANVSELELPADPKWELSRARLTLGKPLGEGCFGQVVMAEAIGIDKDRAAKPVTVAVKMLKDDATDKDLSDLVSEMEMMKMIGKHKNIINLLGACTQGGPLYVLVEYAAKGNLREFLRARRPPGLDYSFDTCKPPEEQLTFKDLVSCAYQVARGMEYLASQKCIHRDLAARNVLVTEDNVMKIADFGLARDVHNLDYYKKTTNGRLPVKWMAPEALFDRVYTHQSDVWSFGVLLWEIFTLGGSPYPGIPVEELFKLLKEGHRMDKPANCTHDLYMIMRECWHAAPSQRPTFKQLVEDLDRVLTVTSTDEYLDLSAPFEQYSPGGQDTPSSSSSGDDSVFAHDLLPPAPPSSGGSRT
# AncSZ = assay: as above
# EPHB2 = EPHB2 (UniProt P29323); assay: as above
# Chain of EPHB2 (P29323 whole entry, looked up): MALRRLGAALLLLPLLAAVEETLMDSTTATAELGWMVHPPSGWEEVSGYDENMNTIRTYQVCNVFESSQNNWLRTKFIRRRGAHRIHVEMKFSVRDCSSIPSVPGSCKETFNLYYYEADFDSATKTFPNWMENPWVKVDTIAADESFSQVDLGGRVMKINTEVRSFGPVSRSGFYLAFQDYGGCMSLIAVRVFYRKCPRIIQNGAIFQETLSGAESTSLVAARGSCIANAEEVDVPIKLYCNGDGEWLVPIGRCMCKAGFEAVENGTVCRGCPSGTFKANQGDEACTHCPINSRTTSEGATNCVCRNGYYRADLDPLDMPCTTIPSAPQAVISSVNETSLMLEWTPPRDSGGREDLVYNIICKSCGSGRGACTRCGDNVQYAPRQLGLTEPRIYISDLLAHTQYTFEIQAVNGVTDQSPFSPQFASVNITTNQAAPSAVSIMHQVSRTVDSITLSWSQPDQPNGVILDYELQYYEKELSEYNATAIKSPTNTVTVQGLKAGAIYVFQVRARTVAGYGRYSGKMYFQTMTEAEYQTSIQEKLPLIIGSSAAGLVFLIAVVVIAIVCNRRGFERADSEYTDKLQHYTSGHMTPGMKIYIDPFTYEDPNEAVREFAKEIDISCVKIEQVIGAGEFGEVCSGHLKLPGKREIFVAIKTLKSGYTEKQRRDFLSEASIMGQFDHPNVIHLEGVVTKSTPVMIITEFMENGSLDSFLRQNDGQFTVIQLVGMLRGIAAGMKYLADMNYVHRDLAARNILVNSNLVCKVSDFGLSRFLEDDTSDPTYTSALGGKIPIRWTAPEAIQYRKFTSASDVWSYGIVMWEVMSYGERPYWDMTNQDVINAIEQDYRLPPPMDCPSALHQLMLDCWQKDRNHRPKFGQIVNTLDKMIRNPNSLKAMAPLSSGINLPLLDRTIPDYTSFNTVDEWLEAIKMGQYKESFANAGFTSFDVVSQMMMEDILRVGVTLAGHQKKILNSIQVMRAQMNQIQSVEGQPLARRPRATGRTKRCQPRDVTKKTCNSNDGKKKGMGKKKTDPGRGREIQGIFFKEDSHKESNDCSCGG
# c-Src SH2 = assay: SH2 binding enrichment of the phosphorylated peptide, bacterial display (enrichment ratio); higher = better substrate or ligand; peptides without Tyr show the background
# Grb2 SH2 = Grb2 SH2 (UniProt P62993); assay: as above
# Chain of Grb2 SH2 (P62993 whole entry, looked up): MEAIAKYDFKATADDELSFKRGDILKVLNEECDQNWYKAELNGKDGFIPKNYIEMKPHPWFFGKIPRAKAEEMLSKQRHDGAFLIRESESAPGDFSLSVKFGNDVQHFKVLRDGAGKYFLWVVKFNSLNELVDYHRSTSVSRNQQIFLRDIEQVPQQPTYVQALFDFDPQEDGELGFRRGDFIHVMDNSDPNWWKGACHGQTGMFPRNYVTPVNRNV
# SHP2-C SH2 = assay: as above
# 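Throughout, for SH2 binding enrichment of the phosphorylated peptide, bacterial display: peptide library displayed on the E. coli surface as eCPX fusions, selected cells deep-sequenced, score is each peptide's frequency after selection divided by its frequency in the input.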
# 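Throughout, for phosphorylation enrichment, bacterial display: 11-residue human phosphosite peptides and single-mutation variants displayed on the E. coli surface, counted by deep sequencing, each peptide's frequency after selection divided by its frequency in the unselected input library; frequency after pTyr selection over input frequency; kinase dosed for 20-30% of maximal phosphorylation in three min.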
# Chain of Fyn (P06241 whole entry, looked up): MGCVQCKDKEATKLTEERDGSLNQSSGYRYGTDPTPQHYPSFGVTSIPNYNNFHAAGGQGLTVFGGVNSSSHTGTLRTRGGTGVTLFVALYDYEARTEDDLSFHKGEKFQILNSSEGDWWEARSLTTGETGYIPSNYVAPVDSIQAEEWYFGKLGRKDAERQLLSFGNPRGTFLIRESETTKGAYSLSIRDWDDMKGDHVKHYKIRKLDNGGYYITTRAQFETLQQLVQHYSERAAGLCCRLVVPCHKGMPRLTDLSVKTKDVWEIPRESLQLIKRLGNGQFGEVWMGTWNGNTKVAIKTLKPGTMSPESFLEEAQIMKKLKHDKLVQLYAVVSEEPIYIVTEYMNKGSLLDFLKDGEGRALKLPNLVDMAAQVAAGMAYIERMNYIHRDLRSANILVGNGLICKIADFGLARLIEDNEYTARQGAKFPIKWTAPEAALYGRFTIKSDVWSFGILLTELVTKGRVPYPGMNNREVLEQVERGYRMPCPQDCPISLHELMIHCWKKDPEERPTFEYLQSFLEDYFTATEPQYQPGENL
Sequence,phosphorylation enrichment (Fyn),phosphorylation enrichment (c-Src),phosphorylation enrichment (MERTK),phosphorylation enrichment (EPHB1),phosphorylation enrichment (Fer (mouse)),phosphorylation enrichment (Hck),phosphorylation enrichment (Fes),phosphorylation enrichment (FGFR1),phosphorylation enrichment (Jak2),phosphorylation enrichment (c-Abl (mouse)),phosphorylation enrichment (FGFR3),phosphorylation enrichment (AncSZ),phosphorylation enrichment (EPHB2),SH2 binding enrichment (c-Src SH2),SH2 binding enrichment (Grb2 SH2),SH2 binding enrichment (SHP2-C SH2)
TVHCDYLNIPH [TAF1L_Y1385],0.464,0.718,0.442,3.02,0.46,0.55,1.02,6.63,0.941,0.521,3.97,0.959,0.706,0.718,2.18,0.676
HKLSFYEFDFE [BTK_Y40_YF],1.66,1.24,1.75,0.752,0.919,0.989,1.73,1.01,2.92,1.51,1.36,1.73,0.786,3.27,0.911,0.846
KMKGDYYRYLA [YWHAG_Y130],0.594,0.73,2.1,1.45,0.393,0.816,0.747,8.74,2.55,0.705,5.52,0.647,1.36,1.53,1.76,1.75
STGRSYAGVAV [KLHL3_Y577],0.345,0.302,0.318,0.25,0.31,0.315,0.466,0.482,0.389,0.361,0.389,0.43,0.3,0.476,0.878,0.837
KVPELYEIHTE [BCR_Y554_K558T],0.629,0.546,0.508,0.94,0.74,0.745,0.984,0.578,0.827,0.712,0.68,1.19,0.945,0.525,0.969,0.696
PGIRMYQVQFN [LRFN1_Y454_YF],0.504,0.583,0.349,0.467,0.423,0.384,0.863,0.31,0.789,0.636,0.531,0.619,0.505,0.997,1.61,1.12
LHSEAYLKYIE [PBRM1_Y1610],0.831,0.941,0.678,0.753,0.665,0.684,0.994,0.633,1.55,0.9,0.743,1.16,1.2,0.443,0.664,0.445
PTTKTYFPHFF [HBA1_Y43_D48Y_YF],0.723,0.471,0.607,0.547,0.864,0.672,0.584,0.824,0.569,0.453,0.696,0.681,0.716,0.683,1.23,1.01
HYEDGYPGGSD [CTNND1_Y221],0.799,1.13,0.852,0.796,0.908,0.629,1.28,0.819,1.44,1.12,0.945,1.75,0.762,0.924,0.915,0.786
FIGCIYLYLTK [GARS1_Y414_R412C],0.393,0.704,0.435,0.614,0.486,0.373,0.96,0.535,1.28,0.746,0.79,1.02,0.451,1.04,1.51,1.53
KKGMIYGGGGG [PSME1_Y249_T244K],0.388,0.442,0.381,0.3,0.365,0.466,0.495,0.407,0.487,0.447,0.359,0.467,0.363,0.666,0.766,0.632
IIEDPYYGNDF [ACP1_Y132_S137F],2.71,4.91,1.15,0.683,1.42,1.55,1.48,3.18,1.48,1.09,2.88,1.79,0.666,0.726,0.958,0.488
DTFDPYLDIAL [USP36_Y268_V271I_YF],0.692,0.832,0.527,0.73,1.08,0.577,1.52,0.783,1.39,0.727,1,1.25,0.589,0.487,0.944,0.548
GGYTCYSDGKK [PROS1_Y266_C267S],0.458,0.516,0.441,0.677,0.593,0.499,1.22,0.592,1.01,0.908,0.826,1.13,0.561,0.555,0.677,0.745
IHTDAYVRAMT [RPE65_Y89_R85H],0.375,0.363,0.319,0.35,0.407,0.397,0.589,0.389,0.442,0.474,0.401,0.475,0.414,0.451,0.76,0.914
TKAEKYVNKAK [PLCG1_Y991],0.295,0.443,0.365,0.264,0.403,0.343,0.671,0.387,0.557,0.92,0.523,0.503,0.293,0.709,0.89,1.01
LYIDSYEKDVA [PGM1_Y521],0.77,0.69,0.717,0.816,0.798,0.659,1.5,0.895,1.24,0.45,1.14,1.81,1.15,0.817,0.86,0.589

Sequence,phosphorylation enrichment (Fyn),phosphorylation enrichment (c-Src),phosphorylation enrichment (MERTK),phosphorylation enrichment (EPHB1),phosphorylation enrichment (Fer (mouse)),phosphorylation enrichment (Hck),phosphorylation enrichment (Fes),phosphorylation enrichment (FGFR1),phosphorylation enrichment (Jak2),phosphorylation enrichment (c-Abl (mouse)),phosphorylation enrichment (FGFR3),phosphorylation enrichment (AncSZ),phosphorylation enrichment (EPHB2),SH2 binding enrichment (c-Src SH2),SH2 binding enrichment (Grb2 SH2),SH2 binding enrichment (SHP2-C SH2)
PKEQKYSFLQN [GH1_Y68],0.692,0.554,1.18,0.465,0.627,0.577,0.862,0.719,0.688,0.625,0.978,0.972,0.951,1.05,0.909,1.06
EDSEYYKAFEE [CASQ2_Y179],0.425,0.547,0.372,0.526,0.487,0.508,1.34,0.51,1.11,0.793,0.742,1.37,0.489,0.614,0.921,0.748
SVCPDYDLCSI [SQSTM1_Y148_V153I],0.868,0.801,0.616,0.942,2.9,0.599,1.16,0.709,1.11,0.876,0.763,1.72,0.914,0.692,0.968,0.733
VPLLEYYRDIF [CDAN1_Y712],0.444,0.553,0.441,0.564,0.544,0.508,1.24,3.63,2.64,0.728,2.83,0.998,0.647,1.05,0.911,0.968
YCRITYDIFPF [INTS13_Y67_M66T],1.57,2.57,2.83,3.8,0.785,2.72,1.59,1.28,1.45,1.18,1.38,1.8,3.79,1.42,0.847,0.791
EGLRRYLENGK [HLA-A_Y195_W191G],0.397,0.336,0.52,0.346,0.291,0.398,0.473,0.315,0.6,0.419,0.427,0.463,0.323,0.405,0.584,0.615
ETGNLYIAKVE [CNTN4_Y180],0.448,0.391,0.336,0.522,0.441,0.479,0.89,0.405,0.757,0.635,0.62,0.896,0.52,0.276,0.705,0.533
FSLPAFMDRRD [COX4I1_Y38_Y38F],0.458,0.459,0.4,0.396,0.455,0.41,0.81,0.473,0.807,0.497,0.537,0.947,0.456,0.639,1.02,1.03
KLVQLYGVCTK [BTK_Y461],1.25,1.25,0.892,1.33,0.439,1.91,0.887,0.439,0.773,0.686,0.532,0.848,1.43,0.882,1.07,0.981
KVMANYVYKAG [MAML2_Y513_M514V],0.339,0.355,0.361,0.395,0.358,0.386,0.551,0.398,0.514,0.453,0.452,0.465,0.37,0.723,0.874,1.28
MAFDRYAAICS [OR8H2_Y123_H120Y_YF],0.479,0.576,0.889,0.893,0.597,0.76,1.3,0.548,1.2,0.95,0.641,1.15,0.998,1.93,0.853,0.881
RRNEEYCLLAS [ITK_Y198_D202A],0.536,0.57,0.703,1.55,0.594,0.84,0.924,0.888,0.741,0.522,0.977,0.976,0.72,0.627,1.11,0.498
KDQPDYKYQPR [SOX9_Y172_H169Q],0.446,0.396,0.415,0.437,0.491,0.378,0.643,0.431,0.617,0.519,0.557,0.705,0.415,0.493,0.977,0.775
EFGSGYPNDPK [RNASEH2A_Y210_D205E_YF],0.441,0.539,0.653,0.562,0.41,0.503,0.875,0.406,0.797,0.79,0.594,0.884,0.51,0.376,0.879,0.611
EPGSLYGCGGG [ATM_Y2019_D2016G],0.851,0.918,0.634,0.548,0.818,2.19,0.803,0.52,0.707,0.584,0.567,0.77,0.527,0.589,1.24,0.695
LTYHMYADPNF [SOS1_Y618],6.26,8.75,5.2,4.48,1.09,4.13,1.88,4.45,2.66,7.02,3.01,2.15,6.29,6.8,0.955,1.28
